Measurements taken from PMC4556315, “Structure of the JmjC domain-containing protein NO66 complexed with ribosomal protein Rpl8” (Acta Crystallographica Section D: Biological Crystallography, 2015).

What was measured:
[1] = target: T1, C-terminal fragment of wild-type human NO66 (NO66^176–C) (human, UniProt Q9H6W3 176-641); assay: pull-down; GST-Rpl8 fragments immobilised on GST beads from E. coli lysate and washed, incubated with purified NO66^176–C at 277 K for 1 h; buffer B (50 mM HEPES pH 7.5, 300 mM NaCl, 0.1% Triton X-100); SDS-PAGE; details: both partners purified
T1 construct: Cloned in pET-28a(+); Tetramer in the crystal; also called Nucleolar protein 66; wild-type NO66; source: E. coli Rosetta 2 (DE3), purified (Ni-NTA, tag removed by TEV protease, Superdex 200); not shown: His-SUMO, N-terminal, cleaved

[2] = target: T1, C-terminal fragment of wild-type human …; assay: crystal structure; NO66^176–C with Ni2+, NOG and Rpl8^204–224 peptide (protein:NOG:Ni2+:peptide 1:4:10:15); sitting drop, 295 K, 0.1 M imidazole pH 6.5, 0.5 M sodium acetate; 2.2 Å; details: both partners purified
[3] = target: the molecule itself; assay: SEC; Superdex 200 10/300, 20 mM Tris-HCl pH 7.5, 200 mM NaCl; molecular weight estimated from the elution volume

B1: GST-Rpl8 fragment 193–224 (domain or fragment)
chain: not shown
notes: Cloned in pGEX-6P-1
**Q.** Does B1 bind [1]?
**A.** Result: binds

B2: Rpl8^204–224 peptide (human ribosomal protein L8) (peptide, UniProt P62917 204-224, looked up)
peptide: MNPVEHPFGGGNHQHIGKPST
notes: Only residues 212–222 are visible in the structure; also called Rpl8 peptide; source: synthetic peptide
**Q.** Does B2 bind [2]?
**A.** Result: binds

B3: NO66^176–C mutant M3 (F450A/R452A/P455A) (enzyme, human, UniProt Q9H6W3 176-641, looked up)
chain: GGEPAWDSPLRRVLAELNRIPSSRRRAARLFEWLIAPMPPDHFYRRLWEREAVLVRRQDHTYYQGLFSTADLDSMLRNEEVQFGQHLDAARYINGRRETLNPPGRALPAAAWSLYQAGCSLRLLCPQAFSTTVWQFLAVLQEQFGSMAGSNVYLTPPNSQGFAPHYDDIEAFVLQLEGRKLWRVYRPRVPTEELALTSSPNFSQDDLGEPVLQTVLEPGDLLYFPRGFIHQAECQDGVHSLHLTLSTYQRNTWGDFLEAILPLAVQAAMEENVEARAGLARDFMDYMGAQHSDSKDPRRTAFMEKVRVLVARLGHFAPVDAVADQRAKDFIHDSLPPVLTDRERALSVYGLPIRWEAGEPVNVGAQLTTETEVHMLQDGIARLVGEGGHLFLYYTVENSRVYHLEEPKCLEIYPQQADAMELLLGSYPEFVRVGDLPCDSVEDQLSLATTLYDKGLLLTKMPLALN
notes: source: E. coli Rosetta 2 (DE3), purified (Ni-NTA, tag removed by TEV protease, Superdex 200); not shown: His-SUMO, N-terminal, cleaved
**Q.** For B3, which “stoichiometry N” value [3] is on record?
**A.** The value was 2.
